# Where two headings read alike, the source gives them in different places. Ends that are not written are not given here.
# What was measured:
# Assay type in all cases: cell-based
# [1] = molecular target: T1, rat GLP-1 receptor (rGLP-1r) (Rattus norvegicus, UniProt P32301); assay: BSA-cAMP assay, cells expressing rat GLP-1 receptor; details: BSA-cAMP assay
# T1 construct: expressed in transfected cells; host or cells: HEK293s or CHO cells
# T1 sequence (P32301 22-463): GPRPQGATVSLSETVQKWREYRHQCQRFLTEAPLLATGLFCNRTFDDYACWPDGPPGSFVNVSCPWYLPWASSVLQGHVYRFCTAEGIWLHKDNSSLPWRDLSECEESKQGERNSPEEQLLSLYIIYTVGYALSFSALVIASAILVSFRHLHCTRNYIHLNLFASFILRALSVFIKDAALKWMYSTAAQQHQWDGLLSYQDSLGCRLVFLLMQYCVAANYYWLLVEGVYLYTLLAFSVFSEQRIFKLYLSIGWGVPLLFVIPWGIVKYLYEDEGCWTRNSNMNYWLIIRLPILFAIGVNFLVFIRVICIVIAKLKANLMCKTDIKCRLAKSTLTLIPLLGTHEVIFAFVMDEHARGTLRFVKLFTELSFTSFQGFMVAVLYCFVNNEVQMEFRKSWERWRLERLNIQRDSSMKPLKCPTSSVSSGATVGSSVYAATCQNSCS
# Description: (§1) One basic cAMP assays was performed, differing in the medium used for the assay, the “BSA-cAMP assay”:
# (§2) BSA-based assay medium: 0.1% bovine serum albumin (BSA) in
# (§3) In certain aspects, the assay can also be carried out in medium supplemented with serum albumin that corresponds to the receptor being tested, e.g., human serum albumin for testing cAMP activity at hGIPr or hGLP-1r, rat serum albumin for testing cAMP activity at rGIPr or rGLP-1r, and so on. […] All sample dilutions were made in duplicate.
# (§4) A frozen cryo-vial of cells expressing the receptor of interest was thawed rapidly in a water-bath, transferred to pre-warmed assay media and spun at 240×g for 5 minutes. Cells were re-suspended in assay buffer at an optimized concentration (e.g., hGLP-1r and hGIPr cells at 0.5×10^5 cells/ml).
# (§5) To this, 5 μL cell suspension was added and the plates incubated at room temperature for 30 minutes.
# (§6) cAMP levels were measured using a commercially available cAMP dynamic 2 HTRF kit (Cisbio, Cat #62AM4PEJ), following the two step protocol as per manufacturer's recommendations. In brief; anti-cAMP cryptate (donor fluorophore) and cAMP-d2 (acceptor fluorophore) were made up separately by diluting each 1/20 in conjugate & lysis buffer provided in the kit. 5 μL anti-cAMP cryptate was added to all wells of the assay plate, and 5 μL cAMP-d2 added to all wells except non-specific binding (NSB) wells, to which conjugate and lysis buffer was added. […] Data was transformed to % Delta F as described in manufacturer's guidelines and then transformed to percent activation of maximal native agonist response and analysed by 4-parameter logistic fit to determine EC50 values.
# (§7) We used unconstrained 4 parameter logistic fit of data, curve mid-point to determine EC50. This was tested on two occasions, not two batches.
# (§8) In order to be able to carry out in vivo studies in rodents, IP088 was tested for potency against the mouse receptors mGIPr and mGLP-1r as well as the rat receptors rGIPr and rGLP-1r, using cells expressing the respective receptors in the cAMP assay described above.
# [2] = molecular target: T2, mouse GIP receptor (mGIPr) (Mus musculus, UniProt Q0P543); assay: BSA-cAMP assay, cells expressing mouse GIP receptor; details: BSA-cAMP assay
# T2 construct: expressed in transfected cells; host or cells: HEK293s or CHO cells
# T2 sequence (Q0P543 19-460): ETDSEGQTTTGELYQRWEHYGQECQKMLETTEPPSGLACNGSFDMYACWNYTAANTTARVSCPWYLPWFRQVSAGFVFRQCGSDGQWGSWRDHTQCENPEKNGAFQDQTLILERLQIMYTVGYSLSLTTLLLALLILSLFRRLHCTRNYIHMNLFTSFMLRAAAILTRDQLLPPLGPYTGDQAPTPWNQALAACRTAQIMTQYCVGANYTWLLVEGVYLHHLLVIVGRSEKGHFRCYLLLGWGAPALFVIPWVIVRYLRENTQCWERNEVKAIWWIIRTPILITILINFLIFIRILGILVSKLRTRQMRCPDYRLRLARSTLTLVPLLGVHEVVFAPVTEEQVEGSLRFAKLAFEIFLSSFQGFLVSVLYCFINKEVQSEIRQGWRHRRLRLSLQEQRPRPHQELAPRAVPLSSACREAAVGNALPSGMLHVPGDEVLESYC
# Description: as §1, §2, §3, §4, §5, §6, §7, §8
# [3] = molecular target: T3, human GIP receptor (hGIPr) (Homo sapiens, UniProt P48546); assay: BSA-cAMP assay, cells expressing human GIP receptor; details: BSA-cAMP assay
# T3 construct: expressed in transfected cells
# T3 sequence (P48546 22-466): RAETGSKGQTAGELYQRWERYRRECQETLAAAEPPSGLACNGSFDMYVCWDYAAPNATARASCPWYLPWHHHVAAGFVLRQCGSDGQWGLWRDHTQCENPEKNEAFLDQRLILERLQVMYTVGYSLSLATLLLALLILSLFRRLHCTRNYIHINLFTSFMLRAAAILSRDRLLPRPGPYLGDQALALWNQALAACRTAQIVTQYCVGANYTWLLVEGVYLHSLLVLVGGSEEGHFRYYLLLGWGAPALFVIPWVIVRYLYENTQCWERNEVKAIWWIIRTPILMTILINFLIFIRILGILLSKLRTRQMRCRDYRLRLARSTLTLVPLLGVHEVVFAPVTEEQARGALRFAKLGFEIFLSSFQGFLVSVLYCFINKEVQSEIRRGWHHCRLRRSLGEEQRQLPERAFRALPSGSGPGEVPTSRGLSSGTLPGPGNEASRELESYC
# Description: For human GIPr, two different lines were used, shown as “hGIPr” and “hGIPr (C3)” in Table 11.
# as §1, §2, §3, §4, §5, §6, §7
# rat GIP receptor (rGIPr) = molecular target: T4, rat GIP receptor (rGIPr) (Rattus norvegicus, UniProt P43219); assay: BSA-cAMP assay, cells expressing rat GIP receptor; details: BSA-cAMP assay
# T4 construct: expressed in transfected cells; host or cells: HEK293s or CHO cells
# T4 sequence (P43219 19-455): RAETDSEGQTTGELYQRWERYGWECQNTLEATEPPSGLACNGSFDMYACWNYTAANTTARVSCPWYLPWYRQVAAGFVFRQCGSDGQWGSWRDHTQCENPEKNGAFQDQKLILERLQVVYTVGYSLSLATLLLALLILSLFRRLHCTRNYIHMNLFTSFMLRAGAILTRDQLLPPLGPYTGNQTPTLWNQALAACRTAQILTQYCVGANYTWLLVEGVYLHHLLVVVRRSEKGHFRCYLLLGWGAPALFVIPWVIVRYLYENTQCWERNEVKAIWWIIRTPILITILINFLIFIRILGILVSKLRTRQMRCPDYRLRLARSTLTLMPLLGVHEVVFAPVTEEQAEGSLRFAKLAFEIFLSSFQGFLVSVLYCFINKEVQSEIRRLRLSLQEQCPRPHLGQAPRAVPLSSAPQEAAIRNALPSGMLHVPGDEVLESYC
# Description: as §1, §2, §3, §4, §5, §6, §7, §8
# [4] = molecular target: T5, human glucagon receptor (GCGr) (Homo sapiens, UniProt P47871); assay: BSA-cAMP assay, cells expressing human glucagon receptor
# T5 construct: expressed in transfected cells; host or cells: HEK293s or CHO cells
# Description: as §1, §2, §3, §4, §5, §6, §7
# [5] = molecular target: T6, mouse GLP-1 receptor (mGLP-1r) (Mus musculus, UniProt O35659); assay: BSA-cAMP assay, cells expressing mouse GLP-1 receptor; details: BSA-cAMP assay
# T6 construct: expressed in transfected cells; host or cells: HEK293s or CHO cells
# T6 sequence (O35659 22-463): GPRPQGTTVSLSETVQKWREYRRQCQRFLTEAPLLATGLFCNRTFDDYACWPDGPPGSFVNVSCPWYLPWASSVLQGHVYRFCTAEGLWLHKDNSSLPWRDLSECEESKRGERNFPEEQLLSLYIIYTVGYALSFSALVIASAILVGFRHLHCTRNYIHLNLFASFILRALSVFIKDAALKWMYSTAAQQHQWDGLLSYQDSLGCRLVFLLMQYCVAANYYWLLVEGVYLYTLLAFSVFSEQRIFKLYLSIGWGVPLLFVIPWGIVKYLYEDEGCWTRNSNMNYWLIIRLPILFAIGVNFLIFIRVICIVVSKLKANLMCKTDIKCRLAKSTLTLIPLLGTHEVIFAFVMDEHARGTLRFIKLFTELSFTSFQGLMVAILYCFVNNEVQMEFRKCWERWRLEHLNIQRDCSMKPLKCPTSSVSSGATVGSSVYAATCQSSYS
# Description: as §1, §2, §3, §4, §5, §6, §7, §8
# [6] = molecular target: T7, human GLP-1 receptor (hGLP-1r) (Homo sapiens, UniProt P43220); assay: BSA-cAMP assay, cells expressing human GLP-1 receptor; details: BSA-cAMP assay
# T7 construct: expressed in transfected cells
# Description: as §1, §2, §3, §4, §5, §6, §7
# [7] = Batch 1, read-out: rGLP1r cAMP activity EC50
# [8] = Batch 1, read-out: mGIPr cAMP activity EC50
# [9] = Batch 1, read-out: hGIPr cAMP activity EC50
# [10] = Batch 1, read-out: rGIPr cAMP activity EC50
# [11] = Batch 1, read-out: hGCGr cAMP activity EC50
# [12] = Batch 1, read-out: mGLP1r cAMP activity EC50
# [13] = Batch 1, read-out: hGLP1r cAMP activity EC50
# [14] = batch 1 unless a batch is given, read-out: cAMP activity hGIPr (EC50)
# [15] = batch 1 unless a batch is given, read-out: cAMP activity hGCGr (EC50)
# [16] = batch 1 unless a batch is given, read-out: cAMP activity hGLP1r (EC50)
# T7 sequence (P43220 24-463): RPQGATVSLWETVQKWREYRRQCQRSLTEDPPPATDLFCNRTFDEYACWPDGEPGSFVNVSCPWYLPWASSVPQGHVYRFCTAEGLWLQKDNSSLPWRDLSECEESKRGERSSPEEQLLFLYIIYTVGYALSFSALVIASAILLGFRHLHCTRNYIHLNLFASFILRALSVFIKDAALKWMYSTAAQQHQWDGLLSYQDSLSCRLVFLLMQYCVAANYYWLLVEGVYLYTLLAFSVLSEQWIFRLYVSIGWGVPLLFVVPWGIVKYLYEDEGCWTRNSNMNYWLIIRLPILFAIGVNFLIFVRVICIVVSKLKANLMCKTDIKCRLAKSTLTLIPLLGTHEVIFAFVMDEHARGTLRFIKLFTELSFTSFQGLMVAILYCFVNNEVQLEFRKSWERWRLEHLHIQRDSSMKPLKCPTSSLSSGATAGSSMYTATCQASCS
# T5 sequence (P47871 26-477): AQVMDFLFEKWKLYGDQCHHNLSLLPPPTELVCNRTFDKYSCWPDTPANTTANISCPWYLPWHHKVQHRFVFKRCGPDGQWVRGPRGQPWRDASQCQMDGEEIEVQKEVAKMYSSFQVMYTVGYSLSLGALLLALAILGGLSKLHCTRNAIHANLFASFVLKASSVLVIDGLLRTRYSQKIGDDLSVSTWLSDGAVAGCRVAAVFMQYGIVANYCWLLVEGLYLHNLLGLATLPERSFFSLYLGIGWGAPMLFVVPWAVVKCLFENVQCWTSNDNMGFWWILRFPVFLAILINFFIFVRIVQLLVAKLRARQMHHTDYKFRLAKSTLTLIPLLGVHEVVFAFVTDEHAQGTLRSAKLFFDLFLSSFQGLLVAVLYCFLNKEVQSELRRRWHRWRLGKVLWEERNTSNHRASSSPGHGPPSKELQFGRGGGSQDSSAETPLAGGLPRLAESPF
substance,measurement,setting,value
IP368 (YSEGTFTSDYRQAIDRQAIDEFIAWLLKGGGGGGGSGGGGSGGGGSGGGGSACPPC),EC50,[1]; [7],370 nM
same,EC50,[2]; [8],1.3 nM
same,EC50,[3]; [9],0.2 nM
same,EC50,rat GIP receptor (rGIPr); [10],0.22 nM
same,EC50,[4]; [11],> 4860 nM
same,EC50,[5]; [12],> 4860 nM
same,EC50,[6]; [13],230 nM
"IP275: Fc fusion, IgG1-TM, SEQ ID NO:332; agonist peptide YSEGTFTSDYSKLLEKEAQRLFIEWLLKGP (YSEGTFTSDYSKLLEKEAQRLFIEWLLKGPGGGGGSGGGGSGGGGSGGGGSATHTCPPC)",EC50,[1]; read-out: cAMP activity rGLP1r (EC50),0.062 nM
same,EC50,[2]; read-out: cAMP activity mGIPr (EC50),0.26 nM
same,EC50,[3]; [14],0.0087 nM
same,EC50,rat GIP receptor (rGIPr); read-out: cAMP activity rGIPr (EC50),0.014 nM
same,EC50,[4]; [15],230 nM
same,EC50,[5]; read-out: cAMP activity mGLP1r (EC50),1.7 nM
same,EC50,[6]; [16],0.92 nM
IP311 (YSEGTFISDYSIALAAAAIDDFVNWLLAGGGGGGGSGGGGSGGGGSGGGGSATHTCPPC),EC50,[1]; [7],61 nM
same,EC50,[2]; [8],0.95 nM
same,EC50,[3]; [9],0.074 nM
same,EC50,rat GIP receptor (rGIPr); [10],0.43 nM
same,EC50,[4]; [11],> 2420 nM
same,EC50,[5]; [12],1500 nM
same,EC50,[6]; [13],670 nM
"IP420: Fc fusion, IgG1-TM, SEQ ID NO:391; agonist peptide YSEGTFTSDYSKLLEEEATRLFIEWLLAGG (YSEGTFTSDYSKLLEEEATRLFIEWLLAGGGGGGSGGGGSGGGGSGGGGSATHTCPPC)",EC50,[2]; [8],2.6 nM
same,EC50,[4]; [11],21 nM
same,EC50,[6]; [13],0.082 nM
IP238 (HGEGTFTSDVSSYLEGQAAKEFIAWLVKGGGGGGSGGGGSGGGGSAESKYGPPCPPC; also: forms dimer via hinge disulfides),EC50,[3]; [14],310 nM
same,EC50,[6]; [16],0.058 nM
IP196 (HGEGTFTSDVSSYLEGQAAKEFIAWLVKGAAAGGSGSTASSGSGSATGGGGAPEF; /note=“Description of Artificial Sequence Synthetic Peptide-linker-hinge polypeptide”),EC50,[6]; [16],0.073 nM
IP231 (HGEGTFTSDVSSYLEEQAAKEFIAWLVKGGGGGGSGGGGSGGGGSGGGGSATHTCPPC; also: forms dimer via hinge disulfides),EC50,[6]; [16],0.067 nM
IP193 (HGEGTFTSDVSSYLEGQAAKEFIAWLVKGAAAGGSGSTASSGSGSATGGGGCPPCPAPEF; also: forms dimer via hinge disulfides),EC50,[3]; [14],450 nM
same,EC50,[4]; [15],780 nM
same,EC50,[6]; [16],0.064 nM
"IP407: Fc fusion, IgG1-TM, SEQ ID NO:384; agonist peptide YSEGTFTSDYSKLLEEEAIRLFIEWLLAGG (YSEGTFTSDYSKLLEEEAIRLFIEWLLAGGGGGGSGGGGSGGGGSGGGGSATHTCPPC)",EC50,[2]; [8],2.3 nM
same,EC50,[4]; [11],> 163 nM
same,EC50,[6]; [13],0.25 nM
IP353 (YSEGTFTSDYAAAAEAAAAAAFAAWLAKAAGGGGGSGGGGSGGGGSGGGGSACPPC),EC50,[3]; [9],1 nM
same,EC50,[4]; [11],> 3210 nM
same,EC50,[6]; [13],20 nM
"IP413: Fc fusion, IgG1-TM, SEQ ID NO:388; agonist peptide YSEGTFTSDYSKLLEEEASRLFIEWLLAGG (YSEGTFTSDYSKLLEEEASRLFIEWLLAGGGGGGSGGGGSGGGGSGGGGSATHTCPPC)",EC50,[1]; [7],0.048 nM
same,EC50,[2]; [8],3.7 nM
same,EC50,rat GIP receptor (rGIPr); [10],> 113 nM
same,EC50,[4]; [11],7.6 nM
same,EC50,[5]; [12],8.9 nM
same,EC50,[6]; [13],0.19 nM
IP319 (YSEGTFTSDYSKLLEAAAAAAFAAWLAAAAGGGGGSGGGGSGGGGSGGGGSACPPC),EC50,"[4]; Batch 2, read-out: hGCGr cAMP activity EC50",> 445 nM
same,EC50,"[6]; Batch 2, read-out: hGLP1r cAMP activity EC50",170 nM
